According to the DeepSol protein solubility set:

assay: soluble on expression in E. coli; label from the status in PepcDB or PDB records

**Q.** Which “soluble on expression in E. coli” value does the source give for “MGSDKIHHHHHHMKDDQWLEARAHGDPMFPCNVYRVKEVNGQVIIHCHWHHEMEWIYMEAGEAEFQIGTKMTTVRAGEGLFIPSGHLHGAYPVSDKPFSLYATVVHPDFISSFGYDLIQSRYIDPFKDSERTGPIKLCPTHYWMSDMLTMLQATISQFQQKEEGYELVIKANLLQMMAELVKHFPRTEEQKTGTPQQIRQIKKVLQFIDEHYDEKLTIKQLANLVQMSEGHFSRFFKSIVRMTAVEYIHTQRLNKAARLLRETDRTIMDISMSVGFDHPSYFIKLFKRHKRCTPSEFRRIGLPTFSENMKT” here?
**A.** not soluble

**Q.** With “MGSDKIHHHHHHMKDEILIRYINKHCTATEEKEILEWLKEKDNRQRLFELEQIWGLKAEMRFSDKGRMDEAYRQLSRQLGLSGQIEKREKPIQRFTVREWWKYAAVLVAVCLFATNLFYITKEEPEAYNTVVVPKGQRVSLLLSDGTTVWLNAESRFSYPAKFSEKYRTVTLEGEGYFEVAHNPKCPFTVKLPMLNIRVLGTKFNAKAYLDEPSWITLKEGSVEVSTLDDRSKERMSPNDQVYYTVSDGLVLIRNSAQANVDSWTTGDLRFDNKTLKEMAKVIERRYDVKIRIMDSSLVEEYFTCHFRKDLTIAQAMELLKETRRVDYRIEKKTVYLYKK” as the sequence, how does the “soluble on expression in E. coli” value read?
**A.** not soluble

**Q.** For “MGSDKIHHHHHHMKDIANTPLVSIICSTYNHGLYISQCLDGFLMQKTNFPFEILIHDDASTDNTPDIIREYEHNHPQVIRPIYQKENKYSKKEDIFAKYQCSRVRGKYIAICEGDDYWIDPLKLQKQIDFLENNPDYGMIYTTSKVYNQKKGKIEEDIIGRKFNGYIELLSGNCIPTLTSCIRSALVMEYLKEVEPKSKNWLMGDYPMWLWISYYHKIKFLPESTTVYRVLEESASHSNDIQKYERFILSTIDITAFYIHKFNTPLTEPYLRSLSCFYYDLYDKYMCLGMYKKARHYSKLINPSYVSARMRRRVRRFHLRFIQIRLAKWFDIKGKERK”, which “soluble on expression in E. coli” value is on record?
**A.** not soluble

**Q.** For “MGSDKIHHHHHHMKDSALRVGIYQGPEIPQSFKVYAENVWRHLPKQDIATIPFKDRKDLPKSADVLWDIRSGGGNPPPDFLLEHPLPPLVVTVHGFAPLSLNGWEYFRTLKGLIMSGQYAKHKRERWREVRTAVGSIIAVSAFVKDEAIRFTGVPADRIHVCHHGVDGNAFTPGPDTESEPYFFHVSNDEPRKNVGAIVRAFRQLRRHCRVQLVLKLPEESARNYEKIEGIRVLSGFLTTEELVHLYRHALAFIFPSLYEGFGLPILEAMACGCPVITSNVSACREIAGEAARTINPRNESELLEAMEILYRNPEERRARTAMGLRRALGFSWEESAKCHARVLYMTADRNAPVASPD”, which “soluble on expression in E. coli” value is on record?
**A.** not soluble

**Q.** Which “soluble on expression in E. coli” value does the source give for “MGSDKIHHHHHHMKEGKANILIIDDISSNIFALENLLMTENRTFFKATSGDEGLKLALSKPVDLIILDVQMPEMDGFEVANMLKSNKRTKDIPILFASAELKEQKNMLKGLEEGAIDYLFKPLDPEITKAKVNMLIRLELQRKEMVEINSALEKSAILINNCLDIICTIDAETFKFEAFNVAMTNVLGYSSEEITSQSLLFFLQESDREFIKNLKKSDSNTGSFEIQIICKDSSIKWLQWNIVVKGGKWFSNARDITERKKKDDEIIRLNQDLHENIQQLENANKELESFSYSVSHDLRAPLRSINNYAQMLEDAFAAQMDEKSTRLLGNIKRNAFRMDTLIDDLLAFSRLGRKPVQKQSINMNDLVQHVYADMQGTFKGEFVLPALPDIDADYNLLKQVVVNLLSNAIKYSGKIEEPRIEVGYTKNPNAVVYYIKDNGAGFDMEYSDKLFGVFQRLHSTKEFEGTGVGLAIVKRIVEKHGGTIWAEAKVGEGATFYFSLPAPV” here?
**A.** not soluble

**Q.** Which “soluble on expression in E. coli” value does the source give for “MGSDKIHHHHHHMKEILKQQYAIIDIGSNTMRLVIYEKQNGGFYKEIENTKVVARLRNYLVDGVLIEEGIEVLLQTLFQFQESTRFHQLRHVLCVATATIRQAENQEEIKKLVEGQTDFTLRVLSEYEEARYGYLAVMNSTSFSEGITVDIGGGSTEVTYFRNREILEYHSFPFGALSLKQQFIKEDIPTEEELDKLQTYLEYQFRTLPWLIDKKLPLIAIGGSARNLVKIHQNLICYPIAGVHLYKMKEEDIKNVKEELEGLSFIELQKLEGLAKDRADTIVPAVEVFHTLVNVIEAPAFVLSRKGLREGVFYEELTKDLGISYYPNVVEESLYLLSHEYEMDMEFVMQLIKHGRLICQQLEETGLISMSVKDWEVFHQAAKVFNIGKYIDEEASRLHTFYLLANKTIDGMMHKERVRLALIASYKSKMLFKQHLSPFEGWFDKNEQKKIRLLGAVLQFSAALNIRQRSLVESISITESKEGLTFKIVCEQSALAEKVQAEKQKKQLERVLKTNINLFFESKH” here?
**A.** not soluble

**Q.** With “MGSDKIHHHHHHMKEIVTVGVDIAKNVFQVHGVDAQGVVVVRRKLRRSKVSGFFESLPPCLIGIEACATAHHWARHLMALGHEVKLMPAAYVKPYVKRQKNDAADAEGICEAVQRPTMRFVPVKSKEQQGVLMLHRARELLVRQRTMLINALRAHLAELGIATRLGPMGVKDAVAVIEGIDQHLIPEIVQHALSPLCDQLRHVHTKIEEMDRQILEWHRSSALSQRLATIPGIGPVTASAIAATITDVSSFRSGRQLAAWIGLVPRQSSSGGKERLGRITRQGDPYIRRLLVIGAAL” as the sequence, how does the “soluble on expression in E. coli” value read?
**A.** not soluble

**Q.** For “MGSDKIHHHHHHMKESLISFIKEKIEEYNYRGAVVGVSGGVDSAVVLSLCVQALGKDRVFALILPERDSSKDSLKDAVDFCERLGVEYRKRSITPILRKIGVYRLFPPRLFLPDSIVKRYVLNRWNTLSKDPFLDDLRNTGPEEFLKGLAYYRIKHRIRMCLLYFEAEKRGYAVVGTTNRTEYLTGLYVKWGDEAVDIEPIMHLYKTQVFELAKEMNVPEKILKKPPSPDLIPGITDEMAFNMSYLELDRILMKLEKNEDLSDEDPKKVERVKKILELSEKYRRDIPITFDRI”, which “soluble on expression in E. coli” value is on record?
**A.** not soluble

**Q.** Which “soluble on expression in E. coli” value does the source give for “MGSDKIHHHHHHMKESLRREYAPVKDLKPDDHIKMVQDIFSTITGKYDFLNHLLSFRRDVAWRRFAARKMHFSVTRRYLDVATGTADLALEVARRYPEVQVIGVDFVLEMLEKAVEKSARRDKIRDRVHFVQADALALPFADASFDVVGIAFGIRNIPGRLGALREFSRVLVDGGQVVVLEMQSPEQKMLRPLCTFYLRHVLPRLARRFTRNPAAYLYLADSILHFPSSDRFSGMMRDAGFADVRNYPLTLGITRLYVGRKGQ” here?
**A.** not soluble

**Q.** For “MGSDKIHHHHHHMKETSRKSGASAAKGKVIITCAVTGAIHTPTMSPYLPITPDQIASEAIAAAQAGAAILHLHARDPETGKPDQTPEAFARFLPRVKQGTNAAINITTGGSPYMKVEERVRPAAQFKPEVASLNMGSINFGLYHLADKYETFKFDWEKPHLEATRDLVFRNSFKDIEYILATCYDNGTRFEFECYDIAHLYNLSHFADRGLVKPPFFVQSVFGLLGGIGTHPEDVAHMKRTADRLFGDQFRWSVLGAGASQLRIAAQSAALGGNIRVGLEDSLWAGKGKLAKSNAEQVVLARKIIEGLGMEVATPDEAREILSLKGGDKVAF”, which “soluble on expression in E. coli” value is on record?
**A.** not soluble

**Q.** Which “soluble on expression in E. coli” value does the source give for “MGSDKIHHHHHHMKFFSLADEAEFKSIIISKNKAVDVIGSKLGGQVVSFSDEWFASAENLIQPTAPIRDPTRFVHSGAWYDGWETRRHNEMEYDWVIIKMGVAAAHIIGGEIDTAFFNGNHAPFVSIEALYDEGEEGNIVEDDSRWVEIVEKFECGPSQRHLFVRGNGLTKERFTHIKLKMYPDGGIARFRLYGRVVPPELKTKDHIIDLAYVCNGAVALKYSDQHFGSVDNLLLPGRGHDMSDGWETKRSRQPGHTDWAVIQLGRESSFIEKIIVDTAHFRGNFPQFITVEGCLKESESSENTGEGTWVELVGKSKTGPDKEHVYEIRKSIRVSHVKLTIIPDGGVKRIRVWGY” here?
**A.** soluble

**Q.** Which “soluble on expression in E. coli” value does the source give for “MGSDKIHHHHHHMKFSIDRDALLKPLQLVSGAVERRHNLPILANLLVEVSGHSLKMTGTDLEVELVGEATVHGDVQEGRTTVPAKKLLDIVKSLPEQTEIKVEQQENKWLLRCGRSRFSLATLPAEEYPNVEAFRPDIEFTLKQGTLKSLIDSTQFSMANQDVRYYLNGLLIETEGNVLRAVATDGHRLALSHRMIEASLPEKQVIVPRKGVVELSRLLDAEDQDITLAIGESAIRATTATAVFTSKLVDGRFPDYRRVLPKGGDKIVIASRNQLKQALLRASILSNEKFRGVRILLEDGLLKITANNPEQEEAEEIIDVDYNSTTLEIGFNVSYLLDVLNSLRSDEVRVTLIDSNSSALIENHVEEDSMYVVMPMRL” here?
**A.** not soluble

**Q.** With “MGSDKIHHHHHHMKFSLGPILYFWPKQQVFDFYQQAAESDVEHVYLGETVCSKRRELKLDDYLAIAHMLREAGKKVTLSTMTLLEAPAELRELGKYCDNGEFDVEANDVSAIGVLQEQGLNFTAGPGINIYNHQSLRRLIDMGMTRWVVPFELSRDWLQDVLQHNLIDTVRDCFDVEVFSFGHIPLAWSGRCFTARSENRPKDQCELCCIKYPEGREVKSQEGQQVFVLNGIQTQSGTRYNLINQLPGMNGLVDIVRISPQPEGTFDWLQRFRSNINGEHPVTLTSKENNGYWLQLAGLATG” as the sequence, how does the “soluble on expression in E. coli” value read?
**A.** not soluble

**Q.** For “MGSDKIHHHHHHMKFTINRTLFIEKLEKASATVDVKNPMPALQGVLLDCNSKGMILMGSDGTETVTLVTRFNVNSGDCTEPGKVLFAAAPVLKTIKKFKSEFIGLEHKNNELKIVESKKKQFSFCTMDHEEYPEIKIEAGEDWISLSQEQFVSMANGTLHAIPAMDTRKILTGVNLKSVDDKFFSIATDAHRLARLHFDCTKITIAKDGEVVLPIKSLKTALKLFNRETNLQLKLISDTQLLIRGESIIYQSRLLAGTYPDTARMVPDEFKSEIQLSREEFKNTLEQLSAFSSLIVLTSEGKESIHLKPQNSQVGTASVEIPCNQVEAFTLACNVEYLLQALQTITSETIAIKMISNQRPIVVVGAEDTTHSNLQLILPVRV”, which “soluble on expression in E. coli” value is on record?
**A.** not soluble

**Q.** Which “soluble on expression in E. coli” value does the source give for “MGSDKIHHHHHHMKFYNREKEVAELKRVQELAFTQNSRMIVVTGRRRIGKTSLIKEALKGTPTVYLFIGRKAESILVTDFVKIVRETLSIFVPEGIPTFTNLMQYLFEVGKTRAFNIVIDEFQEFYNIRPDVFSDMQNLWDEYKQETKINLVISGSVYSLMQKIFTDHNEPLFGRADNILCLRAFKIGVLKQIMEDLASGYSNDDLLALYTLTGGIPKYVELFCDNQALTIDKMYDFVFSENSLFIDEGRNLLITEFGKNYGTYFSILSEIANGHYTQGEIESALGGTAIGGYLSKLENVYNLITRERPIFAKPGTKKNVRYVIGDNFLNFWFKYIEQNRSYIELQNFDDLRQLAKADYPTYSGRVLEKYFKQKLAETGGFKEIGSWWETKSSIGKQRINSYEIDIVALKSSGKKALIAEVKRVPENNYSHTVFMEKVEHLKQKEMSKYDIETQVLGLKDM” here?
**A.** not soluble

**Q.** With “MGSDKIHHHHHHMKHAYLIIAHNEFEILKRLIQALDDERNDIYIHFDRKLNHYPDCRTSYAKLTFLEERMDVRWGDISVVDAEFALFDEAYRRGEYSYYHLLSGVDMPLKTQNYIHRFFEKNAGKEFVGYYQGNISKEIDRKVCRWHLFPKSFKETEGGLAVTKRVLRAGCVRLQSLLGIRRNKDINFRKGTQWLSISNELVGYLLQQQKEVRRVYTHTFCADEIFVQTICWNSSFRDRVYDMHDEGHGCLRMIGWKDNQLEEWKEKDFEILMNSEALFARKFSIRHIEVVDQILNEISK” as the sequence, how does the “soluble on expression in E. coli” value read?
**A.** not soluble

**Q.** For “MGSDKIHHHHHHMKHIGIIDVGSNSVRLLFAEITSKSSFKILTEFKEYVRLGSGFDSKGNITDNKIDSLISVLNLYKNFCNRFEDTEMVVTATEAFRRAKNQESIIQTVKNNLNLNIRVLSGEEEAYYDYFAAINTLDIKDGLIMDIGGSSTELILVANRTLKECVSLQFGAITLIEKFNIKDSIDEKQEKMLKDFLLESFSSIPWLKSISSTTLIGIGGSIRNIGKISKKQKDYPLNLIHNYIMPAKSAEDIYNDVKNKTLEQRKKIKGLSKDRADIFVGASLAVSMLVNILSINEIIICRNGLREGLLLSKLFHKKPIDNILDFSINNVLINNSINITHSFHVYKLTSLLFSSLQSVHKINISLDKVIKTASMFHNAGVNISYYYHHRHSAYIILNSSLYGISHKECVMSACIDIYQRSENIQSMLNEYGNMLEKEDIYAIKVIGILLRIAENLDKDLSGSIYDLKCIVDDAVVIIKTYSKEPSDFLISEAQNSSGLFKNTFNKSLYIV”, which “soluble on expression in E. coli” value is on record?
**A.** not soluble
